Source: article doi:10.1101/2024.02.16.579611 (bioRxiv, 2024)

Legend:
[1] = target: T1, KorB (wild type), C-terminally His-tagged (plasmid RK2, UniProt P07674 1-358); test: ITC
T1 sequence: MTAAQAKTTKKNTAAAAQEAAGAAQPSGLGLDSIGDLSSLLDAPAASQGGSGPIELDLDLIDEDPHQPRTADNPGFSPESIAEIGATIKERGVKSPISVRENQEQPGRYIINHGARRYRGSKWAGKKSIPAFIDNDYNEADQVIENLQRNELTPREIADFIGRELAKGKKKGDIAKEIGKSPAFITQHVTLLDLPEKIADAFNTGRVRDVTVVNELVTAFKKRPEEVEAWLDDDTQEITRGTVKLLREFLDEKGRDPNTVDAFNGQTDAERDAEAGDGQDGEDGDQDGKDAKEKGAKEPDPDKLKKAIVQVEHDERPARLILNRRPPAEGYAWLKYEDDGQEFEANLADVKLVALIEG

crystal structure = target: the molecule itself; test: crystal structure

Kd [1]: 4.2 ± 0.5 µM
B1: KorA (wild type), C-terminally His-tagged (natural protein)
chain: MKKRLTESQFQEAIQGLEVGQQTIEIARGVLVDGKPQATFATSLGLTRGAVSQAVHRVWAAFEDKNLPEGYARVTAVLPEHQAYIVRKWEADAKKKQETKR
binding result (crystal structure): binds
